20 sequences from the DeepSol protein solubility set can be followed below.

The nature of the series: soluble on expression in E. coli; label from the status in PepcDB or PDB records.
For “MGSDKIHHHHHHMAGVTKLTIAGFKSIRELRDFELRNLNVLIGANGAGKSNFIGFFKLLAEMYERRLQLFVQQQGGSDTLLHFSRKLTDKIEGELNFGTDYDHYRFELVVTNDNRLIFTNEQYWLHSRGSRPGEVGLLGGNKDESDLKKLAAQQKSPLIDDILNSTRVYHFHDTGEKAKVKQPHALNDTLRLKVDGANLAAYLRMLKTEHAESYRQIVDTIRLVAPFFDDFVFRADSASKIQLEWTERGDPDTPFTAHALSDGTLRFICLGTLLLQPWELMPATILIDEPELGLHPYAINLLADLLKRASEQKQLIVSTQSVELLDRLEPEDVIVVDRKDNASTFHRLDAVQLQDWLDDYSLGDLWKQNVLGGRPA”, the “soluble on expression in E. coli” value was “not soluble”.
In the case of “MSLVEMVNRPYASAFEAFAVKNPDVLCLSADLTSSCEIDGFRDRHPDQFLSLGMAEQNMMSFAGGLGLAGYRPFLHSFGVFLYRRPYDQLMASVAYPRRKVRLMGFLPGITTPGGMTHQAIEDVAVMRSIPNMSILETGDATEVESICEAADSIDGPVYCRVLRGSIPRLFDTPIRVGEMRELALGADVLVVTSGIATEEALRARDALSNAGVSIRHLHIHTIKPFNEQALLDHIGSVSKGVVVLENHVITGGVGSLVAEIMADNGVGKPLVRLGLNDTYAHGGSRGYLMKHYGLDAGALVRGIERIIGASTGIDEEALASARVDAVHSAVKAEAEGHHHHHH” it was “not soluble”; in that of “MGSDKIHHHHHHMPIIATAAWSIPKKVADRFAQGGSSLTRYASVFDGVEVNSTFYRRHKTSTFATWEHSVPDAFRFAVKIPKEITHTSAMRDIAEPFDTFLEDIAPLGEKRGPLLCQLPPSLTFDVEVLQTAFKTMRDADDGPIVIEVRHKSWASAEALDLLKTYRIDRVLADPAPVWPVEDFDTPPKYVRLHGKPKIYYSSYTDDEIKSFSALLAPDSWCVFDNTASGAAIENALNMAEIR”, “not soluble”; in that of “MGSDKIHHHHHHMNQSKTAIVIDSSANIAPEIVRKYHFTIVNQPVMFGKHVYHENMDIDSDEFYRMLKLEKYHPTASQIPMKEMQEVFSNLAQAGYEAALCIGLSGGLSGFINSVSASVPAIKDLQVYPYDSGSILAGVEKVAILASHLLDNGVDIHEVLHQMRKYRRQTQAYIAVNNIKELQNMGNISNRTSLVGSFFGMRPILTINHQGRLEMVGKERQMKNAMEAIEEIFDKQLVDHTNLVVTVIDANDVDRSMQWQSTLKAKYPGMQVESQQIGPYVGTYTGSKAIGLIWSPKL”, “not soluble”.
With “MGSDKIHHHHHHLSPSVYPKSMADMETIVTSVYANMVAVPLYGKRVMAKGTFCVDHTVDMAWTGDANWNQLATNQVTSDNAYIGTLWIGYYKMISCANTVLEQLERIDKEKFTDADLARLSQMKGEALFWRGWAHQQLVAFFGEGYPCNGDGDKKGVPVRLQVASTPDMLNIERSTVAEVYDQILKDYEAAKLLLPAVWEERADYPRPTSVAVASYIGQANLYMGNYDAAKKALKEVIDSSGKELLPFNEYAKMFNEDQEKFNRESILEINFRNGDTSGYFWYGEGSQYGLIAALCFQNASGDVEAAGWGNIFFHDANIKRFNGDPRLDIAALRPGTPVIMNGQQTQVLKYKDTEADIQGWSMRKYNPLKSTVNELNLGVGINMYLMRLADVYLMYAEACQATGDEVNARNYMNLVRRRAYNGDSSHDITASGEALRDAIREERFMEFCGEGVQHWQDVCRWKVLDEEISRWYGKTRVGNPHYDAKDLYFPIPKVEMENNPNMTQSIGYENE” the entry was “not soluble”; with “MLEQPYLDLAKKVLDEGHFKPDITHTGTYSIFGHQMRFDLSKGFPLLTTKKVPFGLIKSELLWFLHGDTNIRFLLQHRNHIWDEWAFEKWVKSDEYHGPDMTDFGHRSQKDPEFAAVYHEEMAKFDDRVLHDDAFAAKYGDLGLVYGSQWRAWHTSKGDTIDQLGDVIEQIKTHPYSRRLIVSAWNPEDVPTMALPPCHTLYQFYVNDGKLSLQLYQRSADIFLGVPFNIASYALLTHLVAHECGLEVGEFIHTFGDAHLYVNHLDQIKEQLSRTPRPAPTLQLNPDKHDIFDFDMKDIKLLNYDPYPAIKAPVAV”, “soluble”.
In the case of “MAGSKKSNRREEILQALAQMLESAEGASRITTAKLAKQVGVSEAALYRHFPSKARMFEGLIEFIEEALMTRINRILDDEKDTLERIRMVMHLILAFSERNPGLTRILSGHALMFENERLRERINQLFERIETQLRQILRERKIREGKSFPVEERILAAQILGQVEGSLNRFVRSDFKYQPTANFDEYWALLSAQIK” it was “not soluble”; in that of “MSLSENLIIFNAKVVTPLGFSARKGKEMAELRILEKATVEVVDGIITYVGPNRGEVRDGYYHHFWHYNARGKCLLPGFVDSHTHFVFGGERAEEFSWRLKGESYMSIMQRGGGIASTVQATRELSFIHLRSKAEGLLKKMTAMGITTVEGKSGYGLNRETELLQLKVMRSLNKDEGVRVDIVPTFLGAHALPDEYKERPDDYIDFLIRELLPVIQRDSLAEFCDVFCEEGVFSIEQSRRLLTAAGDYGLLPKLHADEIVPLGGAELAAELGAVSADHLLHASDAGIEAMARKGVVATLLPLTAFALKEPYARGRDMIDAGCAVALATDLNPGSCFSGSIPLTFALACIHMQLTVEEAITALTLNGAAALNRADSIGSIEVGKKGDFVVLDSDNYHILPYYVGMNCVNTTIKGGMLYPSEGHHHHHH”, “soluble”; in that of “MDKQHFKLWYFQFRGRAEPIRLLLTCAGVKFEDYQFTMDQWPTIKPTLPGGRVPLLDVTGPDGKLRRYQESMAIARLLARQFKMMGETDEEYYLIERIIGECEDLYREVYTIFRTPQGEKEAKIKEFKENNGPTLLKLVSESLESSGGKHVAGNRITLGDLFLFTTLTHVMETVPGFLEQKFPKLHEFHKSLPTSCSRLSEYLKKRAKTPF”, “soluble”.
As to “MGSDKIHHHHHHMNTKDLAYFDELISQKNFSKVAKTFGVSQPTVTTAIKRLESEFGAPLVIRDRVKNTLHVTASGAQLAEHAKIVLHELRLAHQEIDNLSQNRLILGLPPIIENHYFPKIGARLAAEGLLAGLETIEGGSIWLRNAVRDGRVDMTLLGSVEPLAYQTLIAEEFDRQPFCIYVSKQHPLAQRKRVYFNELRREKFVFFNSNFIHNTAFNKLTRRNHFRPNIVFRSNDTHVLMKLIGENVGIGFFTKIVDHYRTDVVRLDLMDIEPPEFITSIVYRTTHILTPVQQQLLTILHETLAVDTDQTD”, the “soluble on expression in E. coli” value is on record as “not soluble”.
With “DAVPEKSLNAALLCLQAMGALDDNGDVTEHGKKVYPLPIDALFADLVTRIPTKAEKEAMIDLAAALSVPAQLYQLQRGEAAEALEREEPLGCD”, the “soluble on expression in E. coli” value was “not soluble”.
As to “MSLTPEKLPLHVLLAEDSVVNQKVALSMLGKLGCFPDVAANGREAIDAMRQKRYDLVFMDCQMPEIDGYEVTRRIRKDHSLLCSPDIPVVAMTANAMKGDREKCIDAGMDDFMAKPLKKSDFQAIFERYFPGLFVRESSKEAGAGALTTDDVFLIDDVLFRLQNDREIILIIIGQFLLEAALQITELQAAAAEHDTERVRILSHTIKGAAATVGGQELSRCAAIIEQGAKSGDLTGIDEHLRDLNASYLRFKERVEASGWCEEGGEGHHHHHH”, the “soluble on expression in E. coli” value is “soluble”.
With “MAGNSIGQFFRVTTFGESHGIALGCIIDGVPPGIPITEADIQLDLDRRRPGTSRYTTQRRELDQVRILSGVFEGVTTGTSIGLMIENTDQRSQDYSAIKDVFRPGHADYTYEQKYGVRDYRGGGRSSARETAMRVAAGAIAKKYLAQKFGVQVRGYLAQMGDVSCDLLDWDLVEQNPFFCPDASKLEPLDALMRELKKAGDSIGAKITVVAENVPVGLGEPVFDRLDADLAHALMSINAVKGVEIGDGFAVVTKRGSENRDEITPQGFQSNHAGGILGGISSGQPVVAHIALKPTSSIMVPGQTINRQGEAVEMVTRGRHDPCVGIRAVPIAEAMMAIVLMDHLLRQRAQCGDVASDVPRW”, the “soluble on expression in E. coli” value was “not soluble”.
In the case of “MKNPTVSIIIPVYNAEGTITRCLDSIIHQTYSSIEVIIIDDGSSDLSGSICDNYATKYNYIQVIHKKNEGVSIARQIGVKHSKGLYSIHVDADDYIDKCEIERMMDIALKFNADMVVCDYILEYKKNKFVYQKGMKDACDAFDFLKQIYNGIFIGTLWNKLIKTSLYNNVIFLKQCNYCEDVYILTQILSNNISINYINEALYHYCYDASSLTREINRNYIINRIIFIQEIEKILPLDLDLSRFKAGIKLSILKSGEYTYKEYINLYPNTNIPKELLNKRNLLFLSTANFFIGYQFLKILFNLKKRFKSFHL” it was “not soluble”; in that of “MGSDKIHHHHHHMPRYARKRSSTGIYHVMLKGIDGRDIFLDDEDKEKFIENMLKARDKGNFELYAYCLMDNHLHILIKESEGIGTSIKRIAVGYVQWHNNKYGRIGHLFQNRYLSEPVETESYLLTVVKYIHQNPLKARIVTQLADYKWSSYLQYLAAYKGDNSHIDPLLIMEYFKIQTEFESYMNEPTNSECLDYKQSSKYTDEILKNIIRESFGINDLIDMPNDMRNALIKDIYQSTGVSIRQLARVLGIGKSIVERALK”, “not soluble”; in that of “MGKHKVGAVFLAGVLAMGTVMTGCSGKDETEGKTVIEMVQYKPEAVDIFEQFQDEFNATHDDIYLKIDSPNDAMTILKTRFIREDNPDIIGIGGDINYSNFLDADMLMDISDFEGLNDIKEKYLEMNKDLEYVPKDGVYAVPYMANAAGILFNRDMFEEHGWEVPTTWTEFTNLCDQIQSEGIQPLYFGFKDTWTTLAPWNAIAVSLCDSDLTYQVNSGKTTFAENYREVAEKEKALLTYGQKDPVSQGYNDACTAFARGASAMFTIGSYAISQIKSVNPDMNIGSFVFPANEDADKNVLNSGNDLMFCVMKDCKNKEAAYEVLSYMLEDENVKKYLNAQSAVPCKKGDFEVTPELEEMRDYIENGIVADYQDHHYPSEMSVDAMIQTYLMDDSADATDTFMKRFDKEWIRYNRDIVAKVKAYEEGNDHE”, “not soluble”.
For the sequence “MGSDKIHHHHHHMAIIETRGIWLTTTDSKVLRSKQRIAEAMDLLAETGFNVVFPVVWNKAVTLYPSQTMQETFGVEIDPMSVGRDPLEEVVVEARRVGLKVIPWFEYGFASSYNLNGGVLLQKKPEWAARDFNGNLLNKNGFEWLNALDSQVQEFFLNLVLEVVKNYDVDGVQGDDRLPAFPCEGGYDEGTVSRYRQEYDRNPPQNPKDRQWLQWRADILTDFLARLYGEVKAVNPNLLVAIAPNIHDWAFQEYLQDSPTWLKRGIVDMIQPQIYRRDFGSYCAIADKLVSQQFTDATLPRLAPGILMKLGSYCISPEYLVQAIEYNRQLGIQGEVFFFYEGLRENNNTLAKVLRNGPYAKSASFPTLSDLSVSGVSNKKTSSTWQRLLKKIF”, the “soluble on expression in E. coli” value is reported as “not soluble”.
With “MQCELCGKEVKNIIKTRVEGVEMNVCEACAKFGMSPKGYSRKPRAVFKNETKQKQAKRPRKDMFDNLKTLVEDYGSLVKEAREKKNMTLEELSRAVGIKESLIHKIERNEIEPEEKYVKILEKALGISFYEEGDLNYETSNEDSEFTLGDFIKVKKRK” the entry was “not soluble”.
Take “MTRHGKNCTAGAVYTYHEKRKDTAASGYGTQSVRLGKDAIKDFDCCSLSLQPCRDPVLTEDGYLYEKEAILQYILHQKTEIAKKMKAYEKQKQALKSEGQLESKSEERERAEKFKQRENNIVSKPINPFTSGKSKDEGNQNGSTSSSSTDTSSGESSSSSALPSFWIPSLTPEAKPTLLKKPSKTVSCPMSGRPLKMSDLITVRFTPLDPSLDRVALLTRQDRYVCAVTKDTLGNSVPCAVLRPSGVVVTMECVEKLIKKDMVDPITGDKLKEKDIIPIQRGGTGFAGSGVDLKAKEARPVMQA”: the “soluble on expression in E. coli” value is reported as “not soluble”.
As for “MLPFVFNADDDGKRVQNEEGNYDPTDHQRQMEDYYKQYEEQRVANSFHNTTGRPDLVAMQARLAETEQAIHRLNEEKKQPPPGFPIMTTPATQPEISIPRSGENKSSRSPSWAREARRSRSRSRDRRGGRSRSRSPSRRRTSRDRRDDRSSRRRRGPIINQLS”, the “soluble on expression in E. coli” value is recorded as “soluble”.
